We go through eight molecules from patent US20240376151A1, “STAPLED PEPTIDES AND METHODS THEREOF” (FOG PHARMACEUTICALS, INC., priority 2022, published 2024).

Numbered stars: 1 amine (or outer) side, 2 acyl side, 3 side chain; on linkers, the order of the positions; unused ones are H or OH. Bridge positions count the residues as written; N and C are the ends. Ends that are not written are not given here. Phenylene(1,4-NHCOCH2)2 = O=C(C[*:1])Nc1ccc(NC(=O)C[*:2])cc1; 8‑residue Gly‑rich linker = not defined here

Assay [1] deals with human PD-L1 (residues 18-239) with C-terminal human IgG Fc-Avi tag (human), Q9NZQ7. Kind of assay: SPR. In general terms: In SPR one partner is held on a chip, and binding of the other changes the refractive index at the surface.
Sequence of human PD-L1 (residues 18-239) with C-terminal human IgG Fc-Avi tag (human), Q9NZQ7 (Q9NZQ7 18-239): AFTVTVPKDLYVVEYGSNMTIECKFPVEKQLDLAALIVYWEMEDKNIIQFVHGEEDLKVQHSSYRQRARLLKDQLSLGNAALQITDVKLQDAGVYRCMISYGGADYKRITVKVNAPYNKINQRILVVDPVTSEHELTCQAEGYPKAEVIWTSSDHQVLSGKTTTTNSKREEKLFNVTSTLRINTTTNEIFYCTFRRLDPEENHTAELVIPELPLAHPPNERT
In assay [2] the target is T1, CUL1 N-terminal domain (residues 15-410, V367R/L371D) (human), Q13616. Kind of assay: phage display screen, bead-bound target, spike-in-normalized NGS; target 10 nM.
Assay [3] addresses T1, CUL1 N-terminal domain (residues …). Kind of assay: phage display screen, bead-bound target, spike-in-normalized NGS; target 1000 nM (second column).
The target is the same in assay [4]. Kind of assay: phage display screen, bead-bound target, spike-in-normalized NGS; target 30 nM.
The target is the same in assay [5]. Kind of assay: phage display screen, bead-bound target, spike-in-normalized NGS; target 300 nM.
Assay [6] has the same target. Kind of assay: phage display screen, bead-bound target, spike-in-normalized NGS; target 100 nM.
Assay [7] has the same target. Kind of assay: phage display screen, bead-bound target, spike-in-normalized NGS; target 1000 nM.
Assay [8] deals with VHL-ELOBC (human), P40337. Kind of assay: phage display screen, NGS; column head 300 nM (row is one cell short of the head, alignment unsure).
Sequence of VHL-ELOBC (human), P40337 (P40337 54-213 limits assumed, chain 1 of 3): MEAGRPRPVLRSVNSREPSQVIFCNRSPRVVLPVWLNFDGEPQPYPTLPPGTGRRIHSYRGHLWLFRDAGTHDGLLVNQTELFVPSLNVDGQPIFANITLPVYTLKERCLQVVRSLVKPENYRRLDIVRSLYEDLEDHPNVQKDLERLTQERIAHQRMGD
Sequence of VHL-ELOBC (human), P40337 (Q15370 1-104 limits assumed, chain 2 of 3, further chain): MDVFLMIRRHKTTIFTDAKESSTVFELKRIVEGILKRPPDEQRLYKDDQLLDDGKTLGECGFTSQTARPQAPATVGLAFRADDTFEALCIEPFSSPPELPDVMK
Sequence of VHL-ELOBC (human), P40337 (Q15369 17-112 limits assumed, chain 3 of 3, further chain): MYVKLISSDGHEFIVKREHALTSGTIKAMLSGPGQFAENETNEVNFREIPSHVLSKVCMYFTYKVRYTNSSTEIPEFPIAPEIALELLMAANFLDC
Assay [9] deals with RNF31 PUB domain protein (residues 1-179), biotinylated (Homo sapiens (Human)) (UniProt Q96EP0). Kind of assay: phage display screen on bead-immobilized RNF31 PUB, NGS.
Sequence of RNF31 PUB domain protein (residues 1-179), biotinylated (Homo sapiens (Human)) (Q96EP0 1-179): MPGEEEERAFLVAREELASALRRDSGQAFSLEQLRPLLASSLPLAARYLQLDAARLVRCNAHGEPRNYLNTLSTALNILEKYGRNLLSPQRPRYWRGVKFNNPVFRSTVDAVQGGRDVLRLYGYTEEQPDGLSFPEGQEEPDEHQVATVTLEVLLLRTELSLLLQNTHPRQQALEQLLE
For assay [10], the target named is MDM2 p53-binding domain + beta-catenin Armadillo domain (the two proteins bridged in the ternary complex) (human) (UniProt Q00987). Kind of assay: direct FP, ternary complex of β-catenin (Armadillo domain) and MDM2 (p53-binding domain).
Sequence of MDM2 p53-binding domain + beta-catenin Armadillo domain (the two proteins bridged in the ternary complex) (human) (Q00987 17-111, chain 1 of 2): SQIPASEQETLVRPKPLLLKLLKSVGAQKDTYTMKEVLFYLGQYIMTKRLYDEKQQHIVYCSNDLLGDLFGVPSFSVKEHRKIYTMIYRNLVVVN
Sequence of MDM2 p53-binding domain + beta-catenin Armadillo domain (the two proteins bridged in the ternary complex) (human) (chain, as listed by the source, chain 2 of 2): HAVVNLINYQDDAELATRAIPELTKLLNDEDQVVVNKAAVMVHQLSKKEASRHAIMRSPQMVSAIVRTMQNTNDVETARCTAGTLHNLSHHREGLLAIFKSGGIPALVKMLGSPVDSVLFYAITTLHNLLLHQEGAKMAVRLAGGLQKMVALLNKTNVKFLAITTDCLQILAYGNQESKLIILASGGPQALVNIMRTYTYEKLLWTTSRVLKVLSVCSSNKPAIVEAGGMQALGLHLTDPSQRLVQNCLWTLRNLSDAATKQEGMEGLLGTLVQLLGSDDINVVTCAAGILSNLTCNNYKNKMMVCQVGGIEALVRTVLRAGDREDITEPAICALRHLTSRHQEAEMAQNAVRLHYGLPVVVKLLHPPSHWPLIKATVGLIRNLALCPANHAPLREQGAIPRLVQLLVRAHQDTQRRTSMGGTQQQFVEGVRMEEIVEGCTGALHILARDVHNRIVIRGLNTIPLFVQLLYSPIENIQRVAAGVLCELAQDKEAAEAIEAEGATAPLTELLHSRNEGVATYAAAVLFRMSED

A word on the Kd: it is the equilibrium constant for the complex coming apart. The low end stands for a tighter complex, the high end for a looser complex. In [1], DPAAADCQWAAFLCRVY (modifications not checked) [FP30790] returned a dissociation constant (Kd) of 10 µM.

For DPAVMECDWAATICDIF (modifications not checked) [phage-displayed Helicon …], the normalized phage count (normalized counts) turned out to be 0 in [2]; 419 in assay [3]; 2 in assay [4]; 402 in assay [5]; 154 in assay [6]; 477 in assay [7].

Molecule DPAWWHCVDAALQCDYY (modifications not checked) returned a phage count (normalised phage counts) in [8] of 40.

In [9], DPAHILCEMAARNCLYN-{8‑residue Gly‑rich linker-M13 pIII} (peptide, not shown: large carriers, linker 7-14 via Phenylene(1,4-NHCOCH2)2 (inferred); reading uncertain) displayed a normalized phage count at Target Concentration 10 (normalized phage counts) of 3, a normalized phage count at Target Concentration 30 (normalized phage counts) of 1, a normalized phage count at Target Concentration 100 (normalized phage counts) of 1 and a normalized phage count at Target Concentration 300 (normalized phage counts) of 1. In assay [9], this molecule registered a normalized phage count at Target Concentration 1000 (normalized phage counts) of 10 and a normalized phage count at Target Concentration 1000 (second column) (normalized phage counts) of 2.

As for DPAWYACVDAAYFCDYQ (modifications not checked), the phage count (normalised phage counts) in [8] was 35.

B1: H329 (peptide)
peptide: Ac-PMEQQAICFQAAWMCLADDWT-NH2
modifications: bridge 8-15; not fully specified (bridges); printed as Ac-PMEQQAICFQAAWMCLADDWT-NH2
Usually EC50 stands for the midpoint of the concentration-response curve. With B1, the concentration for a half-maximal effect (EC50) in assay [10] was determined as 0.014 µM.

For DPAWWHCVAAATQCDQR (modifications not checked), the phage count (normalised phage counts) in [8] came to 79.

With DPADWTCVLAAHNCLYT-{8‑residue Gly‑rich linker-M13 pIII} (peptide, not shown: large carriers, linker 7-14 via Phenylene(1,4-NHCOCH2)2 (inferred); reading uncertain), in assay [9], the normalized phage count at Target Concentration 10 (normalized phage counts) is 0, the normalized phage count at Target Concentration 30 (normalized phage counts) worked out at 0, the normalized phage count at Target Concentration 100 (normalized phage counts) was 0 and the normalized phage count at Target Concentration 300 (normalized phage counts) amounted to 1. In addition, in [9], the normalized phage count at Target Concentration 1000 (normalized phage counts) was found to be 3 and the normalized phage count at Target Concentration 1000 (second column) (normalized phage counts) stood at 9.
